Assay results as given in patent US6528275B1, “Substrates and inhibitors of proteolytic enzymes” (Peptide Therapeutics Limited, priority 1996, dated 2003).

Assays:
Assay in all cases: Der pI substrate assay with FRET peptides (fluorescence, Km, kcat/Km)
Assay type in all cases: biochemical, house dust mite
Settings in all cases: other: purified Der pI; peptides SEQ ID Nos. 1-76; pH 8.25
[1] = substrate: CC(C)CC[C@H](NC(=O)[C@H](C)NC(=O)[C@H](CCC(N)=O)NC(=O)c1ccccc1N)C(=O)N[C@@H](CO)C(=O)N[C@@H](Cc1ccc(O)c([N+](=O)[O-])c1)C(=O)N[C@@H](CC(=O)O)C(N)=O
Method: (§1) Using the general techniques described above, the following compounds were prepared and assayed as potential substrates against Der pI purified as described above.
(§2) Each mixture of 20 compounds in the libraries of the apparatus described herein was screened at a concentration of 1.0 μM per compound in an assay against the cysteinyl protease Der pI.
(§3) Plate assays were carried out in 96 well plate format, using 0.1 ug of Der pI per 100 μL assay volume in each well and using 20 μM of the substrate. All assays were performed in Assay Buffer (AB; 50 mM potassium phosphate, pH 8.25 containing 1 mM ethylenediaminetetraacetic acid (EDTA) and 1 mM dithiothreitol (DTT). The Der pI enzyme is pre-activated by addition of DTT and this in incubated at room temperature for 5 min. prior to initiation of the assay. As an example for the screening methodology, each well contains a 5 μL of a 20 μM solution of the test compound in DMSO, 10 μL of a 200 μM aqueous solution of the substrate, 2, and 85 μL of Der pI in AB is added to initiate the reaction. Enzyme activity is monitored by fluorescence using 320 nm for excitation and 420 nm for the emission wavelengths using a Labsystems Fluroskan Ascent machine. Kinetic measurements were carried out using a Hitachi F-4500 Fluorescence Spectrophotometer.

[2] = substrate: CC(C)CC[C@H](NC(=O)[C@H](CC[S+](C)[O-])NC(=O)[C@@H](NC(=O)c1ccccc1N)C(C)C)C(=O)N[C@@H](CO)C(=O)N[C@@H](Cc1ccc(O)c([N+](=O)[O-])c1)C(=O)N[C@@H](CC(=O)O)C(N)=O
Method: as §1, §2, §3

[3] = substrate: CC(C)CC[C@H](NC(=O)[C@H](C)NC(=O)[C@H](Cc1ccc2ccccc2c1)NC(=O)c1ccccc1N)C(=O)N[C@@H](CO)C(=O)N[C@@H](Cc1ccc(O)c([N+](=O)[O-])c1)C(=O)N[C@@H](CC(=O)O)C(N)=O
Method: as §1, §2, §3

[4] = substrate: CC(C)[C@H](NC(=O)c1ccccc1N)C(=O)N[C@@H](C)C(=O)N[C@@H](CCC(N)=O)C(=O)N[C@@H](CO)C(=O)N[C@@H](Cc1ccc(O)c([N+](=O)[O-])c1)C(=O)N[C@@H](CC(=O)O)C(N)=O
Method: as §1, §2, §3

[5] = substrate: CC(C)CC[C@H](NC(=O)[C@H](C)NC(=O)[C@H](Cc1ccc(-c2ccccc2)cc1)NC(=O)c1ccccc1N)C(=O)N[C@@H](CO)C(=O)N[C@@H](Cc1ccc(O)c([N+](=O)[O-])c1)C(=O)N[C@@H](CC(=O)O)C(N)=O
Method: as §1, §2, §3

[6] = substrate: CC(C)[C@H](NC(=O)c1ccccc1N)C(=O)N[C@@H](C)C(=O)N[C@@H](Cc1cccnc1)C(=O)N[C@@H](CO)C(=O)N[C@@H](Cc1ccc(O)c([N+](=O)[O-])c1)C(=O)N[C@@H](CC(=O)O)C(N)=O
Method: as §1, §2, §3

[7] = substrate: CC(C)CC[C@H](NC(=O)[C@H](C)NC(=O)[C@H](CC(C)C)NC(=O)c1ccccc1N)C(=O)N[C@@H](CO)C(=O)N[C@@H](Cc1ccc(O)c([N+](=O)[O-])c1)C(=O)N[C@@H](CC(=O)O)C(N)=O
Method: as §1, §2, §3

[8] = substrate: CC(C)CC[C@H](NC(=O)[C@H](C)NC(=O)[C@H](Cc1ccc(-c2ccccc2)cc1)NC(=O)c1ccccc1N)C(=O)N[C@@H](CC1CCCCC1)C(=O)N[C@@H](Cc1ccc(O)c([N+](=O)[O-])c1)C(=O)N[C@@H](CC(=O)O)C(N)=O
Method: as §1, §2, §3

[9] = substrate: CC(C)CC[C@H](NC(=O)[C@H](C)NC(=O)[C@H](Cc1ccc(-c2ccccc2)cc1)NC(=O)c1ccccc1N)C(=O)N[C@@H](CCCCN)C(=O)N[C@@H](Cc1ccc(O)c([N+](=O)[O-])c1)C(=O)N[C@@H](CC(=O)O)C(N)=O
Method: as §1, §2, §3

[10] = substrate: CCCC[C@H](NC(=O)[C@H](C)NC(=O)[C@@H](NC(=O)c1ccccc1N)C(C)C)C(=O)N[C@@H](CO)C(=O)N[C@@H](Cc1ccc(O)c([N+](=O)[O-])c1)C(=O)N[C@@H](CC(=O)O)C(N)=O
Method: as §1, §2, §3

[11] = substrate: CC(C)[C@H](NC(=O)c1ccccc1N)C(=O)N[C@@H](C)C(=O)N[C@@H](CC1CCCCC1)C(=O)N[C@@H](CO)C(=O)N[C@@H](Cc1ccc(O)c([N+](=O)[O-])c1)C(=O)N[C@@H](CC(=O)O)C(N)=O
Method: as §1, §2, §3

[12] = substrate: CCCC[C@H](NC(=O)[C@H](C)NC(=O)[C@@H](NC(=O)[C@H](CCC(=O)O)NC(=O)c1ccccc1N)C(C)C)C(=O)N[C@@H](CO)C(=O)N[C@@H](Cc1ccc(O)c([N+](=O)[O-])c1)C(=O)N[C@@H](CC(=O)O)C(N)=O
Method: as §1, §2, §3

B1: Der pI (Dermatophagoides pteronyssinus) (protein)
chain: TNACSINGNAPAEIDLRQMRTVTPIRMQGGCGSCWAFSGVAATESAYLAYRNQSLDLAEQELVDCASQHGCHGDTIPRGIEYIQHNGVVQESYYRYVAREQSCRRPNAQRFGISNYCQIYPPNVNKIREALAQTHSAIAVIIGIKDLDAFRHYDGRTIIQRDNGYQPNYHAVNIVGYSNAQGVDYWIVRNSWDTNWGDNGYGYFAANIDLMMIEEYPYVVIL
notes: tissue SmithKline-Beecham, U.K (crude mite extract); host or cells: crude house dust mite extract
Km [1]: 12 µM
Km [2]: 35 µM
Km [3]: 15 µM
Km [4]: 6 µM
Km [5]: 2.5 µM
Km [6]: 10 µM
Km [7]: 18 µM
Km [8]: 2.5 µM
Km [9]: 2 µM
Km [10]: 12 µM
Km [11]: 5 µM
Km [12]: 20 µM
